Assay results reported in patent WO2010028796A1 (dated 2010).

Tests used:
human CD4 = human CD4 (human, UniProt P01730 26-458); assay: cell-based or functional assay
human CCR5 = human CCR5 (human, UniProt P51681 1-352); assay: cell-based or functional assay
human CCR5, sequence (P51681 whole entry): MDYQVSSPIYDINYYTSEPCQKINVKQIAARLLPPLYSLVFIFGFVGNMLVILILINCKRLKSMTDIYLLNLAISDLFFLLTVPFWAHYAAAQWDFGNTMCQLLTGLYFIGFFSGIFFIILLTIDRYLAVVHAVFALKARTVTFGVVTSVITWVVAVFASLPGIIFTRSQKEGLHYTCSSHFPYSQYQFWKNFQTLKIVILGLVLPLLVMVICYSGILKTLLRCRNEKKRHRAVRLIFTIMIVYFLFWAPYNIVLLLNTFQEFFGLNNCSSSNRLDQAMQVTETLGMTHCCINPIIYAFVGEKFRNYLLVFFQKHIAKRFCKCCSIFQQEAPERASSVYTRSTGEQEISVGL

B1: HNN-1000-1000 (antibody, V domains shown)
VH: QVQLQQSGPEVVKPGASVKMSCKASGYTFTSYVIHWVRQKPGQGLDWIGYINPYNDGTDYDEKFKGKATLTSDTSTSTAYMELSSLRSEDTAVYYCAREKDNYATGAWFAYWGQGTLVTVSS
VL: DIVMTQSPDSLAVSLGERVTMNCKSSQSLLYSTNQKNYLAWYQQKPGQSPKLLIYWASTRESGVPDRFSGSGSGTDFTLTISSVQAEDVAVYYCQQYYSYRTFGGGTKLEIK
Human CD4
  IC50, PBMC antiviral assay (HIV-1 NLBal, p24 ELISA): 348 pM

B2: BNN-1000-1000 (antibody, human IgG1, kappa, L234A L235A, V domains shown)
VH: QVQLQESGPGLVKPSQSLSITCTVSGFPLGAFGVHWVRQSPGKGLEWLGVIWKGGNTDYNAAFKSRLRITKDNSKSQVFFRMNSLQTDDTATYYCAKVNLADAMDYWGQGTTVTVSS
VL: DIQMTQSPASLSASVGETVTITCRASGNAHGYLAWYQQKPGKAPKLLIYNTKTLAEGVPSRFSGSGSGTQFSLKINSAQPEDFGNYYCQHHYDLPRTFGGGTKVEIKR
Human CCR5
  IC50, PBMC antiviral assay (HIV-1 NLBal, p24 ELISA): 1080 pM
